This is an account of results in publication doi:10.1101/2024.09.24.614694.

The target of this assay is CLuc-TaVIH2 (Triticum aestivum (wheat)). Kind of assay: split reporter.

NLuc-TaFLA7 (natural protein) registered a fold increase of luminescence (RLU) over controls of 7 to 8 fold.
